Results reported in publication PMC2644375.

Assays:
Cul1 (CFP)–Rbx1 (human) = Cul1 (CFP)–Rbx1 (human) (UniProt Q13616); experiment: FRET or BRET
[1] = molecular target: Nedd8 Cul1 (CFP)–Rbx1 (quantitatively neddylated) (UniProt Q13616); experiment: FRET or BRET
[2] = molecular target: SCF^Skp2 (unmodified) (human), Q13616

Kd (Cul1 (CFP)–Rbx1 (human)) [nM] | fold lowering of Kd against unmodified Cul1 (CFP)–Rbx1 [1] [fold] | Km for Cdc34 in ubiquitination of p27-Cdk2-CycE (multi-turnover, varying Cdc34) [2] [µM] | Molecule
82 | 3 |  | LG-labeled Cdc34 (from UniProt P49427 1-236) (enzyme)
 |  | 6.1 | Cdc34, P49427 1-236 (enzyme) MARPLVPSSQKALLLELKGLQEEPVEGFRVTLVDEGDLYNWEVAIFGPPNTYYEGGYFKARLKFPIDYPYSPPAFRFLTKMWHPNIYETGDVCISILHPPVDDPQSGELPSERWNPTQNVRTILLSVISLLNEPNTFSPANVDASVMYRKWKESKGKDREYTDIIRKQVLGTKVDAERDGVKVPTTLAEYCVKTKAPAPDEGSDLFYDDYYEDGEVEEEADSCFGDDEDDSGTEES
